We go through 25 molecules from patent US12065466B2, “Methods and compositions for protein sequencing” (Quantum-Si Incorporated, priority 2020, dated 2024).

B1: PS564: PS372-homologous ClpS protein, SEQ ID NO: 78 (protein)
chain: MFEEVVSVAVAEPKTKKQSRTKPKRQPPYHVILWDDTDHTFDYVIKMMGELFRMPREKGYQLAKEVDTSGRAICMTTTLELAELKRDQIHAFGRDDASAHCKGSMSATIEPAEG
modifications: Planctomycetes bacterium Poly21
B2: PS553: PS372-homologous ClpS protein, SEQ ID NO: 67 (protein, listed as Planctomycetes bacterium)
chain: MPASASAVTEPPVSLPEAAAPRPKDRPKRQPRYHVILWNDDDHTYQYVVAMLRQLFGHPPEKGFTLAKQVDKDGRVVVLTTTKEHAELKRDQIHAFGADRLLARSKGSMSASIEPEASTG
B3: PS546: PS372-homologous ClpS protein, SEQ ID NO: 60 (protein, listed as Planctomycetales bacterium)
chain: MSDTITLPGRPEVERDERTRRQPPYNVILHNDDDHTFEYVIVMLNQLFGYPPEKGYEMAKEVHLNGRVIVLTTSKEHAELKRDQIHAFGPDPFSSKDCKGSMSASIEPAY
B4: PS554: PS372-homologous ClpS protein, SEQ ID NO: 68 (protein, listed as Planctomycetes bacterium)
chain: MSDSASATVEVQADPPADATARSQPTPARSTGSKPKRQPRYHVVLWNDDDHTYEYVIAMLRRLFGIEPEKGFRIAEEVDQSGRAVVLTTTREHAELKRDQIHAFGADRLLARSKGSMSASIEPEA
B5: PS558: PS372-homologous ClpS protein, SEQ ID NO: 72 (protein, listed as Planctomycetes bacterium)
chain: MTATTADPDRTTAEKTTKKARRSGQPKRQPRYHVILWNDNDHTYQYVVAMLQQLFGHPATTGLKLATEVDRTGRAVILTTTREHAELKRDQIHAFGADRLLARSKGAMSASIEPEAE
B6: PS566: PS372-homologous ClpS protein, SEQ ID NO: 80 (protein, listed as Planctomycetaceae bacterium)
chain: MSSPSSLDDVQVSTSRAKPANETRTRKQPPYAVIVENDDHHTFLYVIEALMKVCGHAPEKGFVLAQQIHTQGKAMVWSGTLELAELKRDQLRGFGPDNYAPRPVTFPLGVTIEPLP
B7: PS559: PS372-homologous ClpS protein, SEQ ID NO: 73 (protein, listed as Planctomycetaceae bacterium)
chain: MNQAAISPNPDIKPNPSTHKKRASQRQPRYHVILWNDNDHTYHYVVTMLQKLFGHPPRTGIKMATEVDKKGKVIVLTTSREHAELKRDQIHAFGADKLIRRSKGAMAASIEPES
B8: PS374: ClpS protein, SEQ ID NO: 7 (protein)
chain: MRWEDPLAAEPVTPGVAPVVEEETDAAVETPWRVILYDDDIHTFEEVILQLMKATGCTPEQGERHAWTVHTRGKDCVYQGDFFDCFRVQGVLREIQLVTEIEG
B9: PS548: PS372-homologous ClpS protein, SEQ ID NO: 62 (protein, listed as Gemmataceae bacterium)
chain: MSDTITLPEEKTDVRTKRQPPYHVILLNDDDHTYQYVIYMLQTLFGHPPETGFKMAQEVDKTGRVIVDTTSLERAELKRDQIHAFGPDPYIERCKGSMSAMIEPSE
B10: PS555: PS372-homologous ClpS protein, SEQ ID NO: 69 (protein)
chain: MADSAQTGVAEPIQETLRRRKLRDDRRPKRQPPYHVILWNDNDHTYAYVVVMLMQLFGYPAEKGYQLASEVDTQGRAVVLTTTKEHAELKRDQIHAYGKDGLIEKCKGSMWATIEPAPGE
modifications: Planctomycetes bacterium RBG_16_64_12
B11: PS562: PS372-homologous ClpS protein, SEQ ID NO: 76 (protein, listed as Rubripirellula amarantea)
chain: MSDQQSMVAEPEVVVHTQDEKKLEKQNKRKKQPRYNVVLWDDTDHSYDYVVLMMKQLFHHPIETGFQIAKQVDKGGKAICLTTTMEHAELKRDQIHAFGKDDLIARCTGSMSATIEPVPE
B12: PS551: PS372-homologous ClpS protein, SEQ ID NO: 65 (protein, listed as Rubrobacter indicoceani)
chain: MPSAAPAKPKTKRQSRTQGMPPYNVVLLDDDDHTYGYVIEMLNKVFGHPPEKGFELATEVDKNGRVIVMTTNLEVAELKRDEVHAFGPDPLMPRSKGSMSAVVERAG
B13: PS549: PS372-homologous ClpS protein, SEQ ID NO: 63 (protein, listed as Planctomycetes bacterium)
chain: MSESITTLPKKSRRLKEEEEQKTKRQPPYNVILLNDDDHTFEYVIFMLQKLFGHPPERGMQMAKEVHTTGRVIVMTTALELAELKRDQIHAFGPDPLIDRCKGSMSATIEPAPI
B14: PS565: PS372-homologous ClpS protein, SEQ ID NO: 79 (protein)
chain: MSEFDHEHSGDTSVADPIVTTKTAPKPQKHAENETETRRQPPYNVIILNDEEHTFDYVIELLCKVFRHSLATAQELTWRIHLTGRAVVLTTHKELAELKRDQVLAYGPDPRMSVSKGPLDCFIEPAPGG
modifications: Aquisphaera sp. JC650
B15: PS552: PS372-homologous ClpS protein, SEQ ID NO: 66 (protein)
chain: MSKTSTLPEVESESAQKLKYQPPYHVILLNDDDHSYVYVITMLKELFGHPEQKGYQLADAVDKQGRAIVFTTTREHAELKQEQIHAYGPDPTIPRCKGAMTAVIEPAE
modifications: Fimbriiglobus ruber
B16: PS433: ClpS protein, SEQ ID NO: 56 (protein)
chain: MMSSLKECSIQALPSLDEKTKTEEDLSVPWKVIVLNDPVNLMSYVVMVFRKVFGYNENKATKHMMEVHQLGKSVLWTGQREEAECYAYQLQRWRLQTILEKDD
B17: PS435: ClpS protein, SEQ ID NO: 58 (protein)
chain: MTLSVALGPDTQESTQTGTAVSTDTLTAPDIPWNLVIWNDPVNLMSYVSYVFQSYFGYSETKANKLMMEVHKKGRSIVAHGSKEQVEQHAVAMHGYGLWATVEKATGGNSGGGKSGGPGKGKGKRG
B18: PS560: PS372-homologous ClpS protein, SEQ ID NO: 74 (protein, listed as Planctomycetes bacterium)
chain: MTETITTPAERTQTQAEPRSDRAWLWNVVLLDDDEHTYEYVIRMLHTLFGMPVERAFRLAEEVDARGRAVVLTTHKEHAELKRDQVHAFGKDALIASCAGSMSAVLEPAECGSDDED
B19: PS434: ClpS protein, SEQ ID NO: 57 (protein)
chain: MSRLPWKQEAKFAATVIIDFPDATLEAPTIEKKEATEQQIEMPWNVVVHNDPVNLMSYVTMVFQRVFGYPRERAEKHMLEVHHSGRSILWSGLRERAELYVQQLHGYLLLATIEKTV
B20: PS547: PS372-homologous ClpS protein, SEQ ID NO: 61 (protein, listed as Gemmataceae bacterium)
chain: MGFPTDFRQSIEISTPLGSQQPRFSNASSEPALADPVLVINPRIQPRYHVILLNDDDHTYRYVIEMMLIVFGHPPEKGFLIAKEVDKAGRAICLTTSLEHAEFKQEQVHAYGADPYFGPKCKGSMTAVLEPAE
B21: PS563: PS372-homologous ClpS protein, SEQ ID NO: 77 (protein, listed as Acidobacteria bacterium)
chain: MSSRSATAYPEVEDDTSDQLQPLYHVILLNDEDHTYDYVIEMLQKIFGFPESKAFSHAVEVDTKGTTILLTCDLEQAERKRDLIHSYGPDWRLPRSLGSMAAVVEPAAG
B22: PS545: PS372-homologous ClpS protein, SEQ ID NO: 59 (protein, listed as Planctomycetales bacterium)
chain: MSEPMTLPAIPQPRLKERTQRQPPYNVILLNDDDHSYEYVIAMLQVLFGYPREKGYQMAKEVDSTGRVILLTTTREHAELKQEQIHAFGPDPLMARCQGSMTAVIEPAV
B23: PS561: PS372-homologous ClpS protein, SEQ ID NO: 75 (protein)
chain: MAELQTAVVEPTTRPEQDEKQSQSRPKRQPRYNVILWDDPDHSYDYVIMMLKELFGHPRQRGHQMAEEVDTTGRVICLTTTMEHAELKRDQIHAYGSDEGITRCKGSMSASIEPVPE
modifications: Roseimaritima sp. JC651
B24: PS556: PS372-homologous ClpS protein, SEQ ID NO: 70 (protein, listed as Blastopirellula marina)
chain: MGDSNTSVAEPGEVTVVTTKPAPKKAKPKRQPKYHVVLWNDDDHTYEYVILMMHELFGHPVEKGFQIAKTVDADGRAICLTTTKEHAELKRDQIHAYGKDELIARCRGSMSSTIEPEC
B25: PS550: PS372-homologous ClpS protein, SEQ ID NO: 64 (protein, listed as Planctomycetes bacterium)
chain: MPTFTEPEVVNDTRILPPYHVILLNDDDHTYEYVIHMLQTLFGHPQERGFQLAVEVDKKGKAIVFTTSKEHAEFKRDQIHAFGADPLSSKNCKGSMSAVIEPSF

The subject of the assay is amino acid at a terminal position of a polypeptide. Nature of the assay: Amino acid binding preference of recognition proteins (Tables 1 and 2). The note with it: Table 1, ClpS proteins; amino acid identity at a terminal position of a polypeptide; inferred from literature and/or demonstrated by the inventors. The source says:
It should be appreciated that these sequences and other examples described herein are meant to be non-limiting, and recognition molecules in accordance with the application can include any homologs, variants thereof, or fragments thereof minimally containing domains or subdomains responsible for peptide recognition.
Consider B1, for which the “Binding Pref.” value was “I, L, V”.

In the case of B2, the “Binding Pref.” value is listed as “I, L, V”.

In the case of B3, the “Binding Pref.” value is listed as “I, L, V”.

Regarding B4, the “Binding Pref.” value is recorded as “I, L, V”.

As for B5, the “Binding Pref.” value is recorded as “I, L, V”.

Turning to B6, the “Binding Pref.” value is recorded as “I, L, V”.

In the case of B7, the “Binding Pref.” value was “I, L, V”.

Regarding B8, the “Binding Pref.” value is recorded as “F, Y, W, L”.

For the molecule B9, the “Binding Pref.” value is listed as “I, L, V”.

Take B10: the “Binding Pref.” value was “I, L, V”.

In the case of B11, the “Binding Pref.” value is recorded as “I, L, V”.

Turning to B12, the “Binding Pref.” value is “I, L, V”.

With B13, the “Binding Pref.” value is “I, L, V”.

For B14, the “Binding Pref.” value is “I, L, V”.

As to B15, the “Binding Pref.” value was “I, L, V”.

Turning to B16, the “Binding Pref.” value is “F, Y, W, L”.

In the case of B17, the “Binding Pref.” value is reported as “F, Y, W, L”.

In the case of B18, the “Binding Pref.” value is recorded as “I, L, V”.

B19: the “Binding Pref.” value is “F, Y, W, L”.

With B20, the “Binding Pref.” value is recorded as “I, L, V”.

On to B21, for which the “Binding Pref.” value is “I, L, V”.

B22: the “Binding Pref.” value is reported as “I, L, V”.

In the case of B23, the “Binding Pref.” value is reported as “I, L, V”.

In the case of B24, the “Binding Pref.” value is reported as “I, L, V”.

As for B25, the “Binding Pref.” value is recorded as “I, L, V”.
